Results from IntAct's records for PubMed 19088199.

B1: Indoleamine 2,3-dioxygenase 1 (Mus musculus), P28776 (parent)
chain: MALSKISPTEGSRRILEDHHIDEDVGFALPHPLVELPDAYSPWVLVARNLPVLIENGQLREEVEKLPTLSTDGLRGHRLQRLAHLALGYITMAYVWNRGDDDVRKVLPRNIAVPYCELSEKLGLPPILSYADCVLANWKKKDPNGPMTYENMDILFSFPGGDCDKGFFLVSLLVEIAASPAIKAIPTVSSAVERQDLKALEKALHDIATSLEKAKEIFKRMRDFVDPDTFFHVLRIYLSGWKCSSKLPEGLLYEGVWDTPKMFSGGSAGQSSIFQSLDVLLGIKHEAGKESPAEFLQEMREYMPPAHRNFLFFLESAPPVREFVISRHNEDLTKAYNECVNGLVSVRKFHLAIVDTYIMKPSKKKPTDGDKSEEPSNVESRGTGGTNPMTFLRSVKDTTEKALLSWP

Variants of: B1
Details: with socs3_mouse Socs3, O35718
Chain of socs3_mouse Socs3, O35718 (O35718 whole entry): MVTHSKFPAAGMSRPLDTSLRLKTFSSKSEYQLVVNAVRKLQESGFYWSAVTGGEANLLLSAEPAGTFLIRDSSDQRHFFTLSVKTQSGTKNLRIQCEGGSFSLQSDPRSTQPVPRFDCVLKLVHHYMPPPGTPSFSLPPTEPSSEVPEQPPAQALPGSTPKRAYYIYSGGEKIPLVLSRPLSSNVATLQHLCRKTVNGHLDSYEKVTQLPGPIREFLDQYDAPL

Variant	effect of a mutation on the interaction
Y115F;Y253F	disrupting interaction
